The assay deals with purified human hsp90 (human) (UniProt P07900). As to the kind of experiment: cross-linking.

A word on the stoichiometry N: it is a count of units in the complex or per binding partner.

Substance “purified human hsp90 (from UniProt P07900 1-732) (natural protein)” yielded a stoichiometry N of 2.

For the origin of these results see article PMC2701625.
